In US20180049457A1, “ENZYMATIC SYNTHESIS OF SOLUBLE GLUCAN FIBER” (E I DU PONT DE NEMOURS AND COMPANY, priority 2014, published 2018):

B1: GTF4336T5: T5 C-terminal truncation of GTF4336, SEQ ID NO: 120, strain SG1319 (protein)
chain: INGKQYYVNSDGSVRKNFVFEQDGKSYYFDAETGALATKSQDEFSTEPIKATVDFSSGNQLYKNDDKSLDQLDTFITADAWYRPKSILKDGKTWTASTEADKRPLLMVWWPDKSTQVNYLNYMQNQGLGAGSFSTNSSQESLDQAAKAVQTKIEERIAREGNTNWLRTSIDQFIKTQPGWNSSTENSSYDHLQGGQLLFNNSKGDTGNRTSHANSDYRLLNRTPTNQTGTRKYFKDNSIGGLEFLLANDIDNSNPAVQAEQLNWLHFMMNIGSIMANDPTANFDGLRVDALDNVDADLLQIASDYFKAAYGVDKSEANAIKHLSYLEAWSANDPYYNKDTKGAQLPIDNALRNALTNLLMRDKNTRMQLGDMTAFINSSLNPRGANDKNGERMANYIFTRAHDTEAQTIIQRIIRDRINPNLFGYNFTRDEIKKAFEIYNEDIDKAHKTYASYNLPSVYALMLTNKDSVTRVYYGDLYREDGHYMAKKTPYFDAIDTLLRARIKYVAGGQDMEVKKVGNDGLLTSVRYGKGANNRTDLGTSETRTQGMGVIMTNNYDFRLGSNETVTMNMGRAHRNQLYRPLLLTTKDGIATYFNDSDVPKNLLKRTDWNGNLTFNANDVFGVENVQVSGYLGVWVPVGAKANQDARTQPSNRANSDGQVYKSSAALDSQVMYEAFSNFQAFADDQPELYMNRVLAKNTDLLKAWGVTSVGLPPQYVSSKDGTFLDSTIDNGYAFDDRYDMALSQNNKYGSLEDLLNVLRALHKDGIQAIADWVPDQIYNLPGKEVVNATRVNGYGYHQQGYQIVDQAYVANTRTDGTDYQGKYGGAFLDELKAKYPSIFNRVQISNGKQLPTNEKITKWSAKYFNGTNILGRGINYVLRDDKTNQYFNTSANSQLLPTPLRDTGAITSTQVFQRRGQDVYFLRDNQAVKNEFVQDGNGNWYYFGADGKMTKGAQTINKKDYYFFDNGIQLRNALRRANNGYTYYYGLDGAMVKNAFVDFDDKRKQ
modifications: T5 C-terminal truncation of GTF4336
B2: GTF0974T5: T5 C-terminal truncation of GTF0974 glucosyltransferase, SEQ ID NO: 118, strain SG1317 (protein)
chain: INGKQYYVNSDGSVRKNFVFEQDGKSYYFDAETGALATKSQDEFSTEPIKATVDFSSGNQLYKNDDKSLDQLDTFITADAWYRPKSILKDGKTWTASTEADKRPLLMVWWPDKSTQVNYLNYMQNQGLGAGSFSTNSSQESLDQAAKAVQTKIEERIAREGNTNWLRTSIDQFIKTQPGWNSSTENSSYDHLQGGQLLFNNSKGDTGNRTSHANSDYRLLNRTPTNQTGTRKYFKDNSIGGLEFLLANDIDNSNPAVQAEQLNWLHFMMNIGSIMANDPTANFDGLRVDALDNVDADLLQIASDYFKAAYGVDKSEANAIKHLSYLEAWSANDPYYNKDTKGAQLPIDNALRNALTNLLMRDKNTRMQLGDMTAFINSSLNPRGANDKNGERMANYIFTRAHDTEAQTIIQRIIRDRINPNLFGYNFTRDEIKKAFEIYNEDIDKAHKTYASYNLPSVYALMLTNKDSVTRVYYGDLYREDGHYMAKKTPYFDAIDTLLRARIKYVAGGQDMEVKKVGNDGLLTSVRYGKGANNRTDLGTSETRTQGMGVIMTNNYDFRLGSNETVTMNMGRAHRNQLYRPLLLTTKDGIATYLNDSDVPKKLLKRTDWNGNLTFNANDVFGVENVQVSGYLGVWVPYGAKANQDARTQPSNRANSDGQVYKSSAALDSQVMYEAFSNFQAFADDQPELYMNRVLAKNTDLLKAWGITSVGLPPQYVSSKDGTFLDSTIDNGYAFDDRYDMALSQNNKYGSLEDLLNVLRALHKDGIQAIADWVPDQIYNLPGKEVVNATRVNGYGNHQVGYQIIDQAYVANTRTDGTDYQGKYGGAFLDELKAKYPSIFNRVQISNGKQLPTNEKITKWSAKYFNGTNILGRGINYVLRDDKTNQYFNTSANSQLLPTPLRDTGAITSTQVFQRRGQDVYFLRDNQAVKNEFVQDGNGNWYYFGGDGKMTKGAQNINNKDYYFFDNGIQLRNALRRASNGYTYYYGLDGAMVKNAFVDFDDKHKQ
modifications: T5 C-terminal truncation of GTF0974
B3: GTF4336T4: T4 C-terminal truncation of GTF4336, SEQ ID NO: 130, strain SG1318 (protein)
chain: INGKQYYVNSDGSVRKNFVFEQDGKSYYFDAETGALATKSQDEFSTEPIKATVDFSSGNQLYKNDDKSLDQLDTFITADAWYRPKSILKDGKTWTASTEADKRPLLMVWWPDKSTQVNYLNYMQNQGLGAGSFSTNSSQESLDQAAKAVQTKIEERIAREGNTNWLRTSIDQFIKTQPGWNSSTENSSYDHLQGGQLLFNNSKGDTGNRTSHANSDYRLLNRTPTNQTGTRKYFKDNSIGGLEFLLANDIDNSNPAVQAEQLNWLHFMMNIGSIMANDPTANFDGLRVDALDNVDADLLQIASDYFKAAYGVDKSEANAIKHLSYLEAWSANDPYYNKDTKGAQLPIDNALRNALTNLLMRDKNTRMQLGDMTAFINSSLNPRGANDKNGERMANYIFTRAHDTEAQTIIQRIIRDRINPNLFGYNFTRDEIKKAFEIYNEDIDKAHKTYASYNLPSVYALMLTNKDSVTRVYYGDLYREDGHYMAKKTPYFDAIDTLLRARIKYVAGGQDMEVKKVGNDGLLTSVRYGKGANNRTDLGTSETRTQGMGVIMTNNYDFRLGSNETVTMNMGRAHRNQLYRPLLLTTKDGIATYFNDSDVPKNLLKRTDWNGNLTFNANDVFGVENVQVSGYLGVWVPVGAKANQDARTQPSNRANSDGQVYKSSAALDSQVMYEAFSNFQAFADDQPELYMNRVLAKNTDLLKAWGVTSVGLPPQYVSSKDGTFLDSTIDNGYAFDDRYDMALSQNNKYGSLEDLLNVLRALHKDGIQAIADWVPDQIYNLPGKEVVNATRVNGYGYHQQGYQIVDQAYVANTRTDGTDYQGKYGGAFLDELKAKYPSIFNRVQISNGKQLPTNEKITKWSAKYFNGTNILGRGINYVLRDDKTNQYFNTSANSQLLPTPLRDTGAITSTQVFQRRGQDVYFLRDNQAVKNEFVQDGNGNWYYFGADGKMTKGAQTINKKDYYFFDNGIQLRNALRRANNGYTYYYGLDGAMVKNAFVDFDDKRK
modifications: T4 C-terminal truncation of GTF4336
B4: GTF0974NT: N terminal-only truncated GTF0974 from Streptococcus salivarius 57.I, SEQ ID NO: 110, strain SG1290 (protein)
chain: INGKQYYVNSDGSVRKNFVFEQDGKSYYFDAETGALATKSQDEFSTEPIKATVDFSSGNQLYKNDDKSLDQLDTFITADAWYRPKSILKDGKTWTASTEADKRPLLMVWWPDKSTQVNYLNYMQNQGLGAGSFSTNSSQESLDQAAKAVQTKIEERIAREGNTNWLRTSIDQFIKTQPGWNSSTENSSYDHLQGGQLLFNNSKGDTGNRTSHANSDYRLLNRTPTNQTGTRKYFKDNSIGGLEFLLANDIDNSNPAVQAEQLNWLHFMMNIGSIMANDPTANFDGLRVDALDNVDADLLQIASDYFKAAYGVDKSEANAIKHLSYLEAWSANDPYYNKDTKGAQLPIDNALRNALTNLLMRDKNTRMQLGDMTAFINSSLNPRGANDKNGERMANYIFTRAHDTEAQTIIQRIIRDRINPNLFGYNFTRDEIKKAFEIYNEDIDKAHKTYASYNLPSVYALMLTNKDSVTRVYYGDLYREDGHYMAKKTPYFDAIDTLLRARIKYVAGGQDMEVKKVGNDGLLTSVRYGKGANNRTDLGTSETRTQGMGVIMTNNYDFRLGSNETVTMNMGRAHRNQLYRPLLLTTKDGIATYLNDSDVPKKLLKRTDWNGNLTFNANDVFGVENVQVSGYLGVWVPYGAKANQDARTQPSNRANSDGQVYKSSAALDSQVMYEAFSNFQAFADDQPELYMNRVLAKNTDLLKAWGITSVGLPPQYVSSKDGTFLDSTIDNGYAFDDRYDMALSQNNKYGSLEDLLNVLRALHKDGIQAIADWVPDQIYNLPGKEVVNATRVNGYGNHQVGYQIIDQAYVANTRTDGTDYQGKYGGAFLDELKAKYPSIFNRVQISNGKQLPTNEKITKWSAKYFNGTNILGRGINYVLRDDKTNQYFNTSANSQLLPTPLRDTGAITSTQVFQRRGQDVYFLRDNQAVKNEFVQDGNGNWYYFGGDGKMTKGAQNINNKDYYFFDNGIQLRNALRRASNGYTYYYGLDGAMVKNAFVDFDDKHKQVRAFTTQGTMVVGNLHWSGHHFYFDRETGIQAKDRVVRTDDGKLHYYVAETGDMGRNVFATDSSTGKRYYFDADGNTVTGSRVIDGKTYYFNQDGSVGTAYSNRADSIIFENGKARYITPAGEIGRSIFVYNPETKAWNYFDKEGNRVTGRQYIDGHLYYFKEDGSQAKGEIIEENGVKYYYEPESGILASGRYLQVGDDQWMYFKQDGSLAIGQVRADHGYLKYFDKNGIQVKGKTVVEDGKTYYYDAHSGALVTSSFAEIAPNQWSYFNTDGQALKGKWTINGKEYYFDENGIQYKGKAIKVGSRYKYYDENDGQPVTNRFAQIEPNVWAYFGADGYAVTGEQVINGQHLYFDQSGRQVKGAYVTVNGQRRYYDANTGEYVPGR
modifications: Streptococcus salivarius 57.I

Assay: GTF activity of strains (PAHBAH assay)
Assay type: biochemical
Conditions: enzyme expressed in B. subtilis host
Protocol: GTF activity of the strains was analyzed by PAHBAH assay in three separate experiments. Due to minor variations between the expeirments, Table 2 lists the activity of the truncated enzymes in the B. subtilis host along with the experiment in which the activity was measured. Most of the T1, T2, and T6 truncations decreased the activity of the enzymes, whereas the T4 and T5 C-terminal truncations retained similar activity relative to the respective N terminal-only truncations (NT). […] To identify specific amino acid residues within the catalytic domain that may be involved in producing the soluble α-glucan fiber, we analyzed the crystal structures (PDB Identifiers: 3AIB, 3AIC, and 3HZ3) of the catalytic domains of three glucosyltransferases to identify residues within 8 Angstroms of the bound ligand. 57 residues met that criterion. A motif was generated based on the corresponding 57 amino acids in GTF0459 and each of the identified homologs. The motif was then used to generate a consensus sequence to capture the variability in the catalytic domains of GTF0459 and the identified homologs. The consensus sequence is provided as SEQ ID NO: 153.

Molecule | GTF activity of strains: Acitivity (Experiment Number 2) [U/mL] | GTF activity of strains: Acitivity (Experiment Number 3) [U/mL] | GTF activity of strains: Acitivity (Experiment Number 1) [U/mL]
B1 | 43.6 |  | 
B2 | 43.5 | 37.7 | 
B3 | 46.4 |  | 
B4 | 53 | 36.4 | 43.7
